According to patent US10941182 (Amgen, dated 2021):
Starred links: 1 amine or outer side, 2 acyl side, 3 side chain; linkers in the order of their positions; H or OH if unused. Non-standard residues stand in square brackets, D forms with d. Primed or numbered codes have the meaning given here. *: point of attachment. AC4Abu = α-carboxy-4-aminobutyric acid, O=C(C(CCN[*:1])C(=O)[*:3])[*:2]; dBip = N[C@H](Cc1ccc(-c2ccccc2)cc1)C(=O)O; Oic = O=C(O)[C@@H]1C[C@@H]2CCCC[C@@H]2N1; Phe(4-Cl) = N[C@@H](Cc1ccc(Cl)cc1)C(=O)O; Phe(4-I) = N[C@@H](Cc1ccc(I)cc1)C(=O)O; γGlu = O=C(O)[C@H](CCC(=O)[*:2])N[*:1]; NMeR = CN[C@@H](CCCNC(=N)N)C(=O)O; hArg = N=C(N)NCCCC[C@H](N)C(=O)O; Cha = N[C@@H](CC1CCCCC1)C(=O)O; NMeL = CN[C@@H](CC(C)C)C(=O)O; Nle = CCCC[C@H](N)C(=O)O; Pip′ = not defined here; Hexanoyl = CCCCCC(=O)*; AEEA = NCCOCCOCC(=O)O; Aib = CC(C)(N)C(=O)O; Ahx = NCCCCCC(=O)O

What was measured:
human APJ receptor = target: T1, human APJ receptor (human, UniProt P35414 1-380); experiment: cell-based or functional assay
T1 sequence (looked up): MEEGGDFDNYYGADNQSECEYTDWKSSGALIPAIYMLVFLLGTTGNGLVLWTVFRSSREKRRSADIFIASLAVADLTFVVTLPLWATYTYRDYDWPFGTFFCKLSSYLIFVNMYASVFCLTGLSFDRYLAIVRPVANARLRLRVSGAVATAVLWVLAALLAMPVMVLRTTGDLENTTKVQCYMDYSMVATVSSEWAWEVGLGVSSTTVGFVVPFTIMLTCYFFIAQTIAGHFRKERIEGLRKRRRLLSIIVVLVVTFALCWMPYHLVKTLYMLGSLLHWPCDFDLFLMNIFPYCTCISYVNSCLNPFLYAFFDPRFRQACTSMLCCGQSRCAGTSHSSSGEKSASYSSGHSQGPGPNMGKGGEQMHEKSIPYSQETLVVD

rat APJ receptor = target: T2, rat APJ receptor (rat, UniProt Q9JHG3 1-377); experiment: cell-based or functional assay
T2 sequence (looked up): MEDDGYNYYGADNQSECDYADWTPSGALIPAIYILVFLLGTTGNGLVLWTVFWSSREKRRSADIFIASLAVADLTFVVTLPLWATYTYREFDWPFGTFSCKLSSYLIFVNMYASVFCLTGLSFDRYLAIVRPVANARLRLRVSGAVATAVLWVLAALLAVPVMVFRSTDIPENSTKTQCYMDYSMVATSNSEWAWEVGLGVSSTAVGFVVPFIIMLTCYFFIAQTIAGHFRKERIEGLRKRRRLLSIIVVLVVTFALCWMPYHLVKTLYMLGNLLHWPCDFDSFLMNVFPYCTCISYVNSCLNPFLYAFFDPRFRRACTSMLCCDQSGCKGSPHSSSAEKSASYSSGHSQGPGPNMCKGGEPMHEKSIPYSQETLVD

B1: SEQ ID NO: 561 (peptide)
peptide: XXXQRPRLSHKGPXPF
modifications: {hexanoyl}[AC4Abu][Aeea][Aeea]Q[NMehArg]P[NMeArg][aMeLeu]SHKGP[Nle]P[4-Cl-F]{COOH}
Human APJ receptor
  EC50 Human APJ Receptor: 1.21 nM
Rat APJ receptor
  EC50 Rat APJ Receptor: 5.94 nM

B2: SEQ ID NO: 562 (peptide)
peptide: Hexanoyl-[AC4Abu][AEEA][AEEA]QRP[NMeR][Cha]SHKG[Oic][Nle][Aib][Phe(4-Cl)]-OH
SMILES: CCCCCC(=O)NCCC(C(=O)O)C(=O)NCCOCCOCC(=O)NCCOCCOCC(=O)N[C@@H](CCC(N)=O)C(=O)N[C@@H](CCCNC(=N)N)C(=O)N1CCC[C@H]1C(=O)N(C)[C@@H](CCCNC(=N)N)C(=O)N[C@@H](CC1CCCCC1)C(=O)N[C@@H](CO)C(=O)N[C@@H](Cc1c[nH]cn1)C(=O)N[C@@H](CCCCN)C(=O)NCC(=O)N1[C@H](C(=O)N[C@@H](CCCC)C(=O)NC(C)(C)C(=O)N[C@@H](Cc2ccc(Cl)cc2)C(=O)O)C[C@@H]2CCCC[C@@H]21
Human APJ receptor
  EC50 Human APJ Receptor: 3.85 nM
Rat APJ receptor
  EC50 Rat APJ Receptor: 16.3 nM

B3: SEQ ID NO: 563 (peptide)
peptide: Hexanoyl-[AC4Abu][AEEA][AEEA][hArg][dR]Q[hArg]P[dR][NMeL]SHKG[Pip′][Phe(4-I)]P[dBip]-OH
Human APJ receptor
  EC50 Human APJ Receptor: 4.3 nM
Rat APJ receptor
  EC50 Rat APJ Receptor: 12.7 nM

B4: SEQ ID NO: 560 (peptide)
peptide: XXXQRPRLSHKGPXPF
modifications: {hexanoyl}[AC4Abu][Aeea][Aeea]QR[aMePro][hArg][aMeLeu]SHKGP[Nle]P[4-Cl-F]{COOH}
Human APJ receptor
  EC50 Human APJ Receptor: 0.0553 nM
Rat APJ receptor
  EC50 Rat APJ Receptor: 0.274 nM

B5: SEQ ID NO: 512 (peptide)
peptide: XXXQRPRLSHKGPXPF
modifications: {HexDDA}[AC4Abu][Aeea][Aeea]QRP[NMeArg]LSHKGP[Nle]P[4-Cl-F]{COOH}
Human APJ receptor
  EC50 Human APJ Receptor: 0.658 nM
Rat APJ receptor
  EC50 Rat APJ Receptor: 4.59 nM

B6: SEQ ID NO: 493 (peptide)
peptide: XXXQRPRLSHKGPXPF
modifications: {Oc}[AC4Abu][Aeea][Aeea]QRP[NMeArg]LSHKGP[Nle]P[4-Cl-F]{COOH}
Human APJ receptor
  EC50 Human APJ Receptor: 0.12 nM
Rat APJ receptor
  EC50 Rat APJ Receptor: 0.647 nM

B7: SEQ ID NO: 566 (peptide)
peptide: Hexanoyl-[Ahx][AC4Abu][AEEA][AEEA][hArg][dR]Q[hArg]P[dR][NMeL]SHKG[Oic][Phe(4-I)]P[dBip]-OH
SMILES: CCCCCC(=O)NCCCCCC(=O)NCCC(C(=O)O)C(=O)NCCOCCOCC(=O)NCCOCCOCC(=O)N[C@@H](CCCCNC(=N)N)C(=O)N[C@H](CCCNC(=N)N)C(=O)N[C@@H](CCC(N)=O)C(=O)N[C@@H](CCCCNC(=N)N)C(=O)N1CCC[C@H]1C(=O)N[C@H](CCCNC(=N)N)C(=O)N(C)[C@@H](CC(C)C)C(=O)N[C@@H](CO)C(=O)N[C@@H](Cc1c[nH]cn1)C(=O)N[C@@H](CCCCN)C(=O)NCC(=O)N1[C@H](C(=O)N[C@@H](Cc2ccc(I)cc2)C(=O)N2CCC[C@H]2C(=O)N[C@H](Cc2ccc(-c3ccccc3)cc2)C(=O)O)C[C@@H]2CCCC[C@@H]21
Human APJ receptor
  EC50 Human APJ Receptor: 1.13 nM
Rat APJ receptor
  EC50 Rat APJ Receptor: 1.65 nM

B8: SEQ ID NO: 286 (peptide)
peptide: Hexanoyl-[γGlu][AEEA][AEEA][hArg][dR]Q[hArg]P[dR][NMeL]SHKG[Oic][Phe(4-I)]P[dBip]-OH
SMILES: CCCCCC(=O)N[C@@H](CCC(=O)NCCOCCOCC(=O)NCCOCCOCC(=O)N[C@@H](CCCCNC(=N)N)C(=O)N[C@H](CCCNC(=N)N)C(=O)N[C@@H](CCC(N)=O)C(=O)N[C@@H](CCCCNC(=N)N)C(=O)N1CCC[C@H]1C(=O)N[C@H](CCCNC(=N)N)C(=O)N(C)[C@@H](CC(C)C)C(=O)N[C@@H](CO)C(=O)N[C@@H](Cc1c[nH]cn1)C(=O)N[C@@H](CCCCN)C(=O)NCC(=O)N1[C@H](C(=O)N[C@@H](Cc2ccc(I)cc2)C(=O)N2CCC[C@H]2C(=O)N[C@H](Cc2ccc(-c3ccccc3)cc2)C(=O)O)C[C@@H]2CCCC[C@@H]21)C(=O)O
Human APJ receptor
  EC50 Human APJ Receptor: 1.62 nM
Rat APJ receptor
  EC50 Rat APJ Receptor: 3.07 nM

B9: SEQ ID NO: 290 (peptide)
peptide: XXXQRPRLSHKGPMPF
modifications: {ODDA}[AC4Abu][Aeea][Aeea]QRPRLSHKGPMPF{COOH}
Human APJ receptor
  EC50 Human APJ Receptor: 40.1 nM
Rat APJ receptor
  EC50 Rat APJ Receptor: 173 nM
